Key:
[1] = biological target: T1, biotinylated, recombinant human CD16A(48R-158V) fused to human IgG1 Fc portion (human, UniProt P08637 17-208, biotinylated (site not stated)); experiment: ELISA, coated construct, soluble CD16A(48R-158V)-Fc
T1 construct: also called CD16A soluble antigen; recombinant human CD16A soluble antigen; not shown: human IgG1 Fc portion

[2] = biological target: T2, CD16A (FcγRIIIA) on primary human NK cells (human, UniProt P08637 17-254); experiment: flow cytometry, primary human NK cells, 37 C, with 10 mg/mL polyclonal human IgG as competitor
T2 construct: whole, on cells
T2 sequence (P08637 17-254): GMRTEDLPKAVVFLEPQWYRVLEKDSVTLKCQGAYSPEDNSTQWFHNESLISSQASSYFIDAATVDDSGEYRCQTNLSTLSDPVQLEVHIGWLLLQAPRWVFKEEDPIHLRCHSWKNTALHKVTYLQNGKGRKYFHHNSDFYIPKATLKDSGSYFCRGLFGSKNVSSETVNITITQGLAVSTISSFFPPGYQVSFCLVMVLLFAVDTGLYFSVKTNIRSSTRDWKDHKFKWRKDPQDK

[3] = biological target: T3, human CD16A-158F ECD fused to monomeric Fc (human, UniProt P08637 17-208, biotinylated on the Avi-tag in the SPR form); experiment: ELISA, antigen coated at 1.5 µg/mL, His-tagged scFv titrated
T3 construct: extracellular domain; not shown: monomeric Fc (Ying et al. 2012), silent; Avi-tag in the SPR form
T3 sequence (P08637 17-208): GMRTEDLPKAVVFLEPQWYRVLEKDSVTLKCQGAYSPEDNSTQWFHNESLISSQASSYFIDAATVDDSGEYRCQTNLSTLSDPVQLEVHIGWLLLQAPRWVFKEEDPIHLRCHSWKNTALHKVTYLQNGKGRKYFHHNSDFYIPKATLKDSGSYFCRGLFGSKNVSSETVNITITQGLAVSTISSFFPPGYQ

[4] = biological target: T4, human CD16A-158V ECD fused to monomeric Fc (human, UniProt P08637 17-208); experiment: as above
T4 construct: extracellular domain; also called CD16A-158V ECD-monomeric Fc-fusion antigen; CD16A-158V ECD-Fc fusion antigen; not shown: monomeric Fc (Ying et al. 2012), silent; Avi-tag in the SPR form
T4 sequence (P08637 17-208 F176V): as the sequence (P08637 17-208) above, with F160V counted along it

[5] = biological target: T5, Cynomolgus CD16A ECD fused to monomeric Fc (cynomolgus, UniProt Q8SPW2 17-208, biotinylated on the Avi-tag in the SPR form); experiment: as above
T5 construct: also called biotinylated mono-Fc(silent)-Avi-tagged cynomolgus CD16; not shown: monomeric Fc fusion partner (Avi-tag in the SPR form)
T5 sequence (Q8SPW2 17-208): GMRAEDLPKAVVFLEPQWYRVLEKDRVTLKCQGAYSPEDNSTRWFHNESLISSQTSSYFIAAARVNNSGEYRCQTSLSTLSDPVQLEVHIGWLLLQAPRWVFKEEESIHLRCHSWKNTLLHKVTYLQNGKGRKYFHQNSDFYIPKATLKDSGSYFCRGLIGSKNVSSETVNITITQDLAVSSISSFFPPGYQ

[6] = biological target: T4, human CD16A-158V ECD fused to monomeric …; experiment: SPR, Biacore T200, receptor captured, 1:1 model
[7] = biological target: T4, human CD16A-158V ECD fused to monomeric …; experiment: ELISA, CD16 antigen coated at 0.5 µg/mL (10 nM), without competition
[8] = biological target: T2, CD16A (FcγRIIIA) on primary human NK …; experiment: flow cytometry, primary human NK cells, 37 C, buffer
[9] = biological target: T4, human CD16A-158V ECD fused to monomeric …; experiment: ELISA, CD16 antigen coated at 0.5 µg/mL (10 nM), with 8-10 nM 3G8 IgG as competitor
[10] = biological target: T2, CD16A (FcγRIIIA) on primary human NK …; experiment: flow cytometry, DyLight650-labelled antibody on fresh human NK cells (FIG. 40A)
Method: Fresh prepared human NK cells were pre-incubated for 1-hours at 37 C with and without 10 mg/mL of SCIG (Hizentra), then stained with DyLight650 labeled anti-AFM26/CD16a at indicted concentrations. […] NK (FIG. 40D) and MM.1S cells (FIG. 40C) were preincubated separately in 50% human autologous serum for 2 hours prior to assay setup. NK cells were co-cultured with MM.1S tumor cell line at an approximate E:T ration of 5, and exposed to 10-fold serial diluted test articles from 0.1-100 nM for approximately 20 hours at 37 C with 5% CO₂. Antibody staining with CD138 and CD56 followed by FACS were used to monitor cytotoxicity of MM.1S target cells and NK survival. Data were analyzed with the software programs FlowJo and GraphPad Prism 6.

T1 sequence (P08637 17-208 L66R/F176V limits assumed): as the sequence (P08637 17-208) above, with L50R, F160V counted along it

B1: scDb-Tribody_01 (other)
VL: SYVLTQPSSVSVAPGQTATISCGGHNIGSKNVHWYQQRPGQSPVLVIYQDNKRPSGIPERFSGSNSGNTATLTISGTQAMDEADYYCQVWDNYSVLFGGGTKLTVL
VH: QVQLVQSGAEVKKPGESLKVSCKASGYTFTSYYMHWVRQAPGQGLEWMGIINPSGGSTSYAQKFQGRVTMTRDTSTSTVYMELSSLRSEDTAVYYCARGSAYYYDFADYWGQGTLVTVSS
notes: Trispecific; LSIV21 scDb VL-VL-VH-VH; connector1 NO:20, no hinge, no Fc, connector2 NO:20
EC50 [1]: 650 pM

B2: scFv 3G8 (scFv containing the variable domains of the CD16 pan-specific antibody 3G8) (scFv)
chain 1: QVTLKESGPGILQPSQTLSLTCSFSGFSLRTSGMGVGWIRQPSGKGLEWLAHIWWDDDKRYNPALKSRLTISKDTSSNQVFLKIASVDTADTATYYCAQINPAWFAYWGQGTLVTVS
chain 2: DIVLTQSPASLAVSLGQRATISCKASQSVDFDGDSFMNWYQQKPGQPPKLLIYTTSNLESGIPARFSASGSGTDFTLNIHPVEEEDTATYYCQQSNEDPYTFGGGTKLELK
Kd [2]: 64600 pM
EC50 [3]: 580 pM
EC50 [4]: 330 pM
EC50 [5]: 870 pM
Kd [6]: 8600 pM
EC50 [7]: 900 pM
Kd [8]: 3800 pM
EC50 [9]: 19700 pM

B3: CD16A/BCMA antibody I (bispecific antibody, human IgG1, kappa)
heavy: EVQLLESGGGLVQPGGSLRLSCAASGFTFSNYDMAWVRQAPGKGLEWVSSISTRGDITSYRDSVKGRFTISRDNSKNTLYLQMNSLRAEDTAVYYCARQDYYTDYMGFAYWGQGTLVTVSSASTKGPSVFPLAPSSKSTSGGTAALGCLVKDYFPEPVTVSWNSGALTSGVHTFPAVLQSSGLYSLSSVVTVPSSSLGTQTYICNVNHKPSNTKVDKKVEPKSCDKTHTCPPCPAPEFEGGPSVFLFPPKPKDTLMISRTPEVTCVVVAVSHEDPEVKFNWYVDGVEVHNAKTKPREEQYNSTYRVVSVLTVLHQDWLNGKEYKCKVSNKALPAPIEKTISKAKGQPREPQVYTLPPSREEMTKNQVSLTCLVKGFYPSDIAVEWESNGQPENNYKTTPPVLDSDGSFFLYSKLTVDKSRWQQGNVFSCSVMHEALHNHYTQKSLSLSPGGGGGSGGGGSGGGGSGGGGSGGGGSGGGGSSYVLTQPSSVSVAPGQTATISCGGHNIGSKNVHWYQQRPGQSPVLVIYQDNKRPSGIPERFSGSNSGNTATLTISGTQAMDEADYYCQVWDNYSVLFGGGTKLTVLGGSGGSGGSGGSGGSGGSGGSQVQLVQSGAEVKKPGESLKVSCKASGYTFTSYYMHWVRQAPGQGLEWMGAIEPMYGSTSYAQKFQGRVTMTRDTSTSTVYMELSSLRSEDTAVYYCARGSAYYYDFADYWGQGTLVTVSS
light: AIQMTQSPSSLSASVGDRVTITCRASEDIYNGLAWYQQKPGKAPKLLIYGASSLQDGVPSRFSGSGSGTEFTLTISSLQPEDEATYYCAGPHKYPLTFGGGTKVEIKRTVAAPSVFIFPPSDEQLKSGTASVVCLLNNFYPREAKVQWKVDNALQSGNSQESVTEQDSKDSTYSLSSTLTLSKADYEKHKVYACEVTHQGLSSPVTKSFNRGEC
notes: also called BCMA/CD16A antibody I; anti-BCMA/CD16a
binding result [10]: binds

Reference: US20200109202A1 (published 2020)
